Each block holds one molecule with its values, some of them ahead of it.
What was measured:
NC(Cc1cccc(F)c1)C(=O)O = assay: adenylation saturation kinetics; type: biochemical, Aneurinibacillus migulanus; settings: ATP A-domain binding pocket enlarged by W239S
NC(Cc1ccccc1F)C(=O)O = assay: adenylation saturation kinetics; type: biochemical, Aneurinibacillus migulanus; settings: ATP A-domain binding pocket enlarged by W239S
GrsA = target: T1, GrsA (Aneurinibacillus migulanus, UniProt P0C061); assay: isothermal titration calorimetry; type: binding
T1 sequence (P0C061 1-428 limits assumed): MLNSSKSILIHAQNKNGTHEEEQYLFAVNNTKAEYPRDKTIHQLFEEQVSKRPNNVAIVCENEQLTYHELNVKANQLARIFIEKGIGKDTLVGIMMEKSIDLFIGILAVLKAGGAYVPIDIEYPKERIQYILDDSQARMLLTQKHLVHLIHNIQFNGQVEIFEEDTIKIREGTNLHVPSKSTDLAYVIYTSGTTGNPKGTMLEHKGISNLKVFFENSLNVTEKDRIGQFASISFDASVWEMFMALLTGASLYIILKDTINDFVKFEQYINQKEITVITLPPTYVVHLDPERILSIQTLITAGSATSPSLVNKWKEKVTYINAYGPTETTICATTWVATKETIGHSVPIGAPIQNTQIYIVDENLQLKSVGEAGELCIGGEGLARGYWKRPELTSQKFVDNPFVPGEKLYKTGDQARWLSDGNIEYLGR

[1] = substrate: CC(C)(F)C(N)C(=O)O; assay: adenylation saturation kinetics; type: biochemical, Bacillus subtilis; settings: ATP
[2] = substrate: CC(C)C(N)C(=O)O; assay: adenylation saturation kinetics; type: biochemical, Bacillus subtilis; settings: ATP
[3] = substrate: NC(Cc1cccc(F)c1)C(=O)O; assay: adenylation saturation kinetics; type: biochemical, Aneurinibacillus migulanus; settings: ATP A-domain binding pocket; T-shaped aromatic interaction with Trp239
[4] = substrate: NC(Cc1ccccc1F)C(=O)O; assay: adenylation saturation kinetics; type: biochemical, Aneurinibacillus migulanus; settings: ATP A-domain binding pocket; T-shaped aromatic interaction with Trp239
[5] = substrate: NC(Cc1cc(F)cc(F)c1)C(=O)O; assay: adenylation saturation kinetics; type: biochemical, Aneurinibacillus migulanus; settings: ATP A-domain binding pocket; T-shaped aromatic interaction with Trp239

Molecule: GrsA-W239S (Aneurinibacillus migulanus; W239S)
Km (NC(Cc1cccc(F)c1)C(=O)O): 900 ± 100 µM
kcat (NC(Cc1cccc(F)c1)C(=O)O): 0.233 ± 0.0167 s⁻¹
kcat/Km (NC(Cc1cccc(F)c1)C(=O)O): 250 M⁻¹ s⁻¹
Km (NC(Cc1ccccc1F)C(=O)O): 3000 ± 1000 µM
kcat (NC(Cc1ccccc1F)C(=O)O): 0.667 ± 0.167 s⁻¹
kcat/Km (NC(Cc1ccccc1F)C(=O)O): 267 M⁻¹ s⁻¹

Kd (GrsA): 60 ± 10 µM
Molecule: NC(Cc1ccccc1)C(=O)O (racemic) [Phe]

B1: SrfA-B1 (Bacillus subtilis subsp. subtilis str. 168) (protein)
chain: ASTAVVYEGTKLTYRELNAAANRLARKLVEHGLQKGETAAIMNDRSVETVVGMLAVLKAGAAYVPLDPALPGDRLRFMAEDSSVRMVLIGNSYTGQAHQLQVPVLTLDIGFEESEAADNLNLPSAPSDLAYIMYTSGSTGKPKGVMIEHKSILRLVKNAGYVPVTEEDRMAQTGAVSFDAGTFEVFGALLNGAALYPVKKETLLDAKQFAAFLREQSITTMWLTSPLFNQLAAKDAGMFGTLRHLIIGGDALVPHIVSKVKQASPSLSLWNGYGPTENTTFSTSFLIDREYGGSIPIGKPIGNSTAYIMDEQQCLQPIGAPGELCVGGIGVARGYVNLPELTEKQFLEDPFRPGERIYRTGDLARWLPDGNIEFLGRIDNQVKVRGFRIELGEIETKLNMAEHVTEAAVIIRKNKADENEICAYFTADREVAVSELRKTLSQSLPDYMVPAHLIQMDSLPLTPNGKINKKELPAPQSEAVQ
Km [1]: 8000 ± 1000 µM
kcat [1]: 0.467 ± 0.05 s⁻¹
kcat/Km [1]: 58.3 M⁻¹ s⁻¹
Km [2]: 60 ± 20 µM
kcat [2]: 0.133 ± 0.0333 s⁻¹
kcat/Km [2]: 2330 M⁻¹ s⁻¹

B2: GrsA (Aneurinibacillus migulanus) (protein)
chain: MLNSSKSILIHAQNKNGTHEEEQYLFAVNNTKAEYPRDKTIHQLFEEQVSKRPNNVAIVCENEQLTYHELNVKANQLARIFIEKGIGKDTLVGIMMEKSIDLFIGILAVLKAGGAYVPIDIEYPKERIQYILDDSQARMLLTQKHLVHLIHNIQFNGQVEIFEEDTIKIREGTNLHVPSKSTDLAYVIYTSGTTGNPKGTMLEHKGISNLKVFFENSLNVTEKDRIGQFASISFDASVWEMFMALLTGASLYIILKDTINDFVKFEQYINQKEITVITLPPTYVVHLDPERILSIQTLITAGSATSPSLVNKWKEKVTYINAYGPTETTICATTWVATKETIGHSVPIGAPIQNTQIYIVDENLQLKSVGEAGELCIGGEGLARGYWKRPELTSQKFVDNPFVPGEKLYKTGDQARWLSDGNIEYLGRIDNQVKIRGHRVELEEVESILLKHMYISETAVSVHKDHQEQPYLCAYFVSEKHIPLEQLRQFSSEELPTYMIPSYFIQLDKMPLTSNGKIDRKQLPEPDLTFGMRVDYEAPRNEIEETLVTIWQDVLGIEKIGIKDNFYALGGDSIKAIQVAARLHSYQLKLETKDLLKYPTIDQLVHYIKDSKRRSEQGIVEGEIGLTPIQHWFFEQQFTNMHHWNQSYMLYRPNGFDKEILLRVFNKIVEHHDALRMIYKHHNGKIVQINRGLEGTLFDFYTFDLTANDNEQQVICEESARLQNSINLEVGPLVKIALFHTQNGDHLFMAIHHLVVDGISWRILFEDLATAYEQAMHQQTIALPEKTDSFKDWSIELEKYANSELFLEEAEYWHHLNYYTENVQIKKDYVTMNNKQKNIRYVGMELTIEETEKLLKNVNKAYRTEINDILLTALGFALKEWADIDKIVINLEGHGREEILEQMNIARTVGWFTSQYPVVLDMQKSDDLSYQIKLMKENLRRIPNKGIGYEIFKYLTTEYLRPVLPFTLKPEINFNYLGQFDTDVKTELFTRSPYSMGNSLGPDGKNNLSPEGESYFVLNINGFIEEGKLHITFSYNEQQYKEDTIQQLSRSYKQHLLAIIEHCVQKEDTELTPSDFSFKELELEEMDDIFDLLADSLT
Km [3]: 14 ± 5 µM
kcat [3]: 0.35 ± 0.0333 s⁻¹
kcat/Km [3]: 25000 M⁻¹ s⁻¹
Km [4]: 20 ± 2 µM
kcat [4]: 0.458 ± 0.0133 s⁻¹
kcat/Km [4]: 23300 M⁻¹ s⁻¹
Km [5]: 14 ± 3 µM
kcat [5]: 0.517 ± 0.0333 s⁻¹
kcat/Km [5]: 36700 M⁻¹ s⁻¹
